T1: Mcm4 (S. cerevisiae, UniProt P30665 1-933)
T1 construct: Mcm4, S. cerevisiae; Subunit as it stands in the DH of the cryo-EM structures; modelled from residue 155 in the DDK-engaged model; also called Mcm4 subunit; source: S. cerevisiae, overexpressed as Mcm2-7-Cdt1, purified; in the DNA-loaded double hexamer
T1 sequence: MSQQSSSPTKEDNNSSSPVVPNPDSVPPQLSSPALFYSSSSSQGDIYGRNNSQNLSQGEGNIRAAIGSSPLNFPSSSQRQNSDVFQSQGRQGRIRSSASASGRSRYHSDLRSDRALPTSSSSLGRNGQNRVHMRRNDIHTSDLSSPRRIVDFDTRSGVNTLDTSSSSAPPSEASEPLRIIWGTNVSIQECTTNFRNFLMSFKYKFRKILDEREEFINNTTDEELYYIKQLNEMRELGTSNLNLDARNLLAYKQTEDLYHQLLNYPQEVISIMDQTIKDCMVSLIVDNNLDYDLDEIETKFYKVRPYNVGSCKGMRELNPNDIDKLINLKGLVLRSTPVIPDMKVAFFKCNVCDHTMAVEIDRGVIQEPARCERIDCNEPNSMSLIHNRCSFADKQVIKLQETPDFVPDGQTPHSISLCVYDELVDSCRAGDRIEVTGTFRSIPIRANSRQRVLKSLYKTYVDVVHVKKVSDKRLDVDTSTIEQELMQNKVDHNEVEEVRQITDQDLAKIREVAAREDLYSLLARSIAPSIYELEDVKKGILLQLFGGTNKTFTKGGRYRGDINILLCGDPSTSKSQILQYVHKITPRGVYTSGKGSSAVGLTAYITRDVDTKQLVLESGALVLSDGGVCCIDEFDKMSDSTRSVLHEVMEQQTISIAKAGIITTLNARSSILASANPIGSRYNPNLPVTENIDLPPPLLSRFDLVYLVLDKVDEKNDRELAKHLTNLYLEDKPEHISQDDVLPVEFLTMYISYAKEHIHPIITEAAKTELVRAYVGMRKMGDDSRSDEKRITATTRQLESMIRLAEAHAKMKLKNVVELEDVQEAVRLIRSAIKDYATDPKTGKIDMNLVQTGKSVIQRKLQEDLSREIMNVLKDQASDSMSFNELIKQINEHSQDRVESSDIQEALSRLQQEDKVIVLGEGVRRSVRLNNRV

T2: Mcm2 (S. cerevisiae, UniProt P29469 1-868)
T2 construct: Mcm2, S. cerevisiae; Subunit as it stands in the DH of the cryo-EM structures; also called Mcm2 subunit; source: S. cerevisiae, overexpressed as Mcm2-7-Cdt1, purified; in the DNA-loaded double hexamer
T2 sequence: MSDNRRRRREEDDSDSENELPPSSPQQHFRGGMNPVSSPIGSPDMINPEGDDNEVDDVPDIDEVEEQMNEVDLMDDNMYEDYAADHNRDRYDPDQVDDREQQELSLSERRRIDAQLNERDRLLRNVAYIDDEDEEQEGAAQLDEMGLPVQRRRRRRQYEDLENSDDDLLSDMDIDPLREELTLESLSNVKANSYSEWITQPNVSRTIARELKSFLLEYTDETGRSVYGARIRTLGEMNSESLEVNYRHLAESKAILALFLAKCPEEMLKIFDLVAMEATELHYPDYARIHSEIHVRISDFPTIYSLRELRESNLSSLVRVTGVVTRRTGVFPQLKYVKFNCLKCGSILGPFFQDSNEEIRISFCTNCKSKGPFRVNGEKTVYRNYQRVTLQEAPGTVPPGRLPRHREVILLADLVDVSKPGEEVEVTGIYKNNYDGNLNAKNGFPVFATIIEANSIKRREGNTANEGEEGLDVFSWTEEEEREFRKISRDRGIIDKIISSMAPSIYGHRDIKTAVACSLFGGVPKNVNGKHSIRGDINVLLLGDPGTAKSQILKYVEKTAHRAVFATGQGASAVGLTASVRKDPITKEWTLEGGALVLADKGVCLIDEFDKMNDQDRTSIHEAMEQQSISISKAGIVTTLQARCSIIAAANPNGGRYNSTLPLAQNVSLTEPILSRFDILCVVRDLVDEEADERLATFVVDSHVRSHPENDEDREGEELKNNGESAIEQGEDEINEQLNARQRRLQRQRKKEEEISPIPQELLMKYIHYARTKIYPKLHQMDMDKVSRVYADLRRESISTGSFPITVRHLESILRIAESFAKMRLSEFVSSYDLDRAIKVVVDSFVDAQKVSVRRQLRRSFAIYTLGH

B1: Mcm7 (natural protein, S. cerevisiae)
chain: MSAALPSIQLPVDYNNLFNEITDFLVTFKQDTLSSDATRNENEDENLDAENIEQHLLEKGPKYMAMLQKVANRELNSVIIDLDDILQYQNEKFLQGTQADDLVSAIQQNANHFTELFCRAIDNNMPLPTKEIDYKDDVLDVILNQRRLRNERMLSDRTNEIRSENLMDTTMDPPSSMNDALREVVEDETELFPPNLTRRYFLYFKPLSQNCARRYRKKAISSKPLSVRQIKGDFLGQLITVRGIITRVSDVKPAVEVIAYTCDQCGYEVFQEVNSRTFTPLSECTSEECSQNQTKGQLFMSTRASKFSAFQECKIQELSQQVPVGHIPRSLNIHVNGTLVRSLSPGDIVDVTGIFLPAPYTGFKALKAGLLTETYLEAQFVRQHKKKFASFSLTSDVEERVMELITSGDVYNRLAKSIAPEIYGNLDVKKALLLLLVGGVDKRVGDGMKIRGDINVCLMGDPGVAKSQLLKAICKISPRGVYTTGKGSSGVGLTAAVMKDPVTDEMILEGGALVLADNGICCIDEFDKMDESDRTAIHEVMEQQTISISKAGINTTLNARTSILAAANPLYGRYNPRLSPLDNINLPAALLSRFDILFLMLDIPSRDDDEKLAEHVTYVHMHNKQPDLDFTPVEPSKMREYIAYAKTKRPVMSEAVNDYVVQAYIRLRQDSKREMDSKFSFGQATPRTLLGIIRLSQALAKLRLADMVDIDDVEEALRLVRVSKESLYQETNKSKEDESPTTKIFTIIKKMLQETGKNTLSYENIVKTVRLRGFTMLQLSNCIQEYSYLNVWHLINEGNTLKFVDDGTMDTDQEDSLVSTPKLAPQTTASANVSAQDSDIDLQDA
notes: Mcm7, S. cerevisiae; also called Mcm7 subunit; source: S. cerevisiae, overexpressed as Mcm2-7-Cdt1, purified; in the DNA-loaded double hexamer
B2: Cdc7 (enzyme, S. cerevisiae)
chain: MTSKTKNIDDIPPEIKEEMIQLYHDLPGIENEYKLIDKIGEGTFSSVYKAKDITGKITKKFASHFWNYGSNYVALKKIYVTSSPQRIYNELNLLYIMTGSSRVAPLCDAKRVRDQVIAVLPYYPHEEFRTFYRDLPIKGIKKYIWELLRALKFVHSKGIIHRDIKPTNFLFNLELGRGVLVDFGLAEAQMDYKSMISSQNDYDNYANTNHDGGYSMRNHEQFCPCIMRNQYSPNSHNQTPPMVTIQNGKVVHLNNVNGVDLTKGYPKNETRRIKRANRAGTRGFRAPEVLMKCGAQSTKIDIWSVGVILLSLLGRRFPMFQSLDDADSLLELCTIFGWKELRKCAALHGLGFEASGLIWDKPNGYSNGLKEFVYDLLNKECTIGTFPEYSVAFETFGFLQQELHDRMSIEPQLPDPKTNMDAVDAYELKKYQEEIWSDHYWCFQVLEQCFEMDPQKRSSAEDLLKTPFFNELNENTYLLDGESTDEDDVVSSSEADLLDKDVLLISE
notes: Cdc7, S. cerevisiae; Subunit as it stands in DDK in the DH-DDK cryo-EM structure; also called Cdc7 catalytic subunit of DDK; source: S. cerevisiae, overexpressed with CBP-Dbf4, purified as DDK
B3: Dbf4 (natural protein, S. cerevisiae)
chain: MVSPTKMIIRSPLKETDTNLKHNNGIAASTTAAGHLNVFSNDNNCNNNNTTESFPKKRSLERLELQQQQHLHEKKRARIERARSIEGAVQVSKGTGLKNVEPRVTPKELLEWQTNWKKIMKRDSRIYFDITDDVEMNTYNKSKMDKRRDLLKRGFLTLGAQITQFFDTTVTIVITRRSVENIYLLKDTDILSRAKKNYMKVWSYEKAARFLKNLDVDLDHLSKTKSASLAAPTLSNLLHNEKLYGPTDRDPRTKRDDIHYFKYPHVYLYDLWQTWAPIITLEWKPQELTNLDELPYPILKIGSFGRCPFIGDRNYDESSYKRVVKRYSRDKANKKYALQLRALFQYHADTLLNTSSVNDQTKNLIFIPHTCNDSTKSFKKWMQEKAKNFEKTELKKTDDSAVQDVRNEHADQTDEKNSILLNETETKEPPLKEEKENKQSIAEESNKYPQRKELAATPKLNHPVLATFARQETEEVPDDLCTLKTKSRQAFEIKASGAHQSNDVATSFGNGLGPTRASVMSKNMKSLSRLMVDRKLGVKQTNGNNKNYTATIATTAETSKENRHRLDFNALKKDEAPSKETGKDSAVHLETNRKPQNFPKVATKSVSADSKVHNDIKITTTESPTASKKSTSTNVTLHFNAQTAQTAQPVKKETVKNSGYCENCRVKYESLEQHIVSEKHLSFAENDLNFEAIDSLIENLRFQI
notes: Dbf4, S. cerevisiae; Subunit as it stands in DDK in the DH-DDK cryo-EM structure; also called Dbf4 subunit of DDK; CBP-Dbf4; source: S. cerevisiae, overexpressed with Cdc7, purified as DDK

Key:
Experiment in all cases: cryo-EM structure; DH loaded with ORC, Cdc6 and Mcm2-7-Cdt1 (96 nM each) on MH-capped ARS1 DNA (8 nM) in buffer B at 30 °C, then 289 nM DDK for 50 min before plunge-freezing; neither crosslinking nor nucleotide analogs
Details in all cases: both partners purified
[1] = target: T3, Mcm3 (S. cerevisiae, UniProt P24279 1-971)
T3 construct: Mcm3, S. cerevisiae; also called Mcm3 subunit; source: S. cerevisiae, overexpressed as Mcm2-7-Cdt1, purified; in the DNA-loaded double hexamer

[2] = target: T1, Mcm4
[3] = target: B3
[4] = target: T2, Mcm2

T3 sequence (P24279 whole entry): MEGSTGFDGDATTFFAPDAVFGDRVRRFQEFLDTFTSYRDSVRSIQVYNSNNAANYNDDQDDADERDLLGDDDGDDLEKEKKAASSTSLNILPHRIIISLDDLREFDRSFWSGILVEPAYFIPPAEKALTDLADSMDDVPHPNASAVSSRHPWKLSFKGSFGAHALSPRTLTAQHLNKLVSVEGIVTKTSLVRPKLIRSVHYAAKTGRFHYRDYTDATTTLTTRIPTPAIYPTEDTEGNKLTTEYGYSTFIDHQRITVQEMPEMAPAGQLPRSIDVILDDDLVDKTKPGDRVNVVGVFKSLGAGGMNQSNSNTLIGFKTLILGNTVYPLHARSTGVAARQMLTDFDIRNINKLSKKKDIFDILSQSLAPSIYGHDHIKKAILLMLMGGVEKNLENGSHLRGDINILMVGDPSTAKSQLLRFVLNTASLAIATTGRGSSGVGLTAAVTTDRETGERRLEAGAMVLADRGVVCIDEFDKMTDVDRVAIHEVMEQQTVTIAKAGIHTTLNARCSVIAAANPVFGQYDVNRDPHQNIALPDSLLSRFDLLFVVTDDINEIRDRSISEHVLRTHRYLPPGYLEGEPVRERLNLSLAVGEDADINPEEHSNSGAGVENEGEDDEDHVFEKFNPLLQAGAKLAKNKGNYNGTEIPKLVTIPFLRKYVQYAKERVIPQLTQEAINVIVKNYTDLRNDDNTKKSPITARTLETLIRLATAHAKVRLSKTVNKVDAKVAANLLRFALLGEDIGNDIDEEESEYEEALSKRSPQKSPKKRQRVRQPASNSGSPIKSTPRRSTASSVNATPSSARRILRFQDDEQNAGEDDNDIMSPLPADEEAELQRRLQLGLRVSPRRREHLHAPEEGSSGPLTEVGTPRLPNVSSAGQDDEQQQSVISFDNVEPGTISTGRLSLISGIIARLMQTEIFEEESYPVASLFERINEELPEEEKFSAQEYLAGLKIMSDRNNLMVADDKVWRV

Binder: B1
- binding result [1]: binds
- binding result [2]: binds

Binder: B2
- binding result [2]: binds
- binding result [3]: binds

Binder: B3
- binding result [4]: binds
- binding result [2]: binds

Reference: article PMC8770131, “Structural mechanism for the selective phosphorylation of DNA-loaded MCM double hexamers by the Dbf4-dependent kinase” (Nature Structural & Molecular Biology, 2021)
